Source: patent US20240325562A1, “INTERNALIZING BINDING MOLECULES” (LinXis B.V., priority 2020, published 2024)

B1: 13F11-13E8: biparatopic IGF2R VHH construct, 13F11 and 13E8 fused with (Gly-Gly-Gly-Gly-Ser)3 linker, C-terminal cysteine (protein)
chain: EVQLVESGGRLVQPGDSLRLSCAASGRTFSDNAMGWFRQAPGKERRFVAGISWAGGSTYYSDSVKGRFTISRDNAKNTVYLQMNSLKPEDTAVYYCAAGLRAWVQRMPKDYNYWGQGTQVTVSSGGGGSGGGGSGGGGSEVQLVESGGGLVQAGGSLRLSCAASRSISPMGWYRQAPGKQRELVAIMPSSGPPIYADSVQGRFTISRDNAKNTVYLQMNSLKPEDTAVYYCNVGGGYWGQGTQVTVSS
modifications: left off: small tags and cut ends
notes: biparatopic IGF2R VHH construct, 13F11 and 13E8 fused with (Gly-Gly-Gly-Gly-Ser)3 linker, C-terminal cysteine
B2: SP02P-SP26P: biparatopic PDGFRB VHH construct combining SP02P and SP26P (protein)
chain: EVQLVESGGGLVQAGGSLRLSCAASESISSIEQMGWFRQAPGKQRALVAINTYGGRTVYTNSVEGRFTMSRDSAKNMVYLQMTSLEPEDTAVYYCYAQTTAWRGGVWGQGTQVTVSSGGGGSGGGGSGGGGSEVQLVESGGGLVQAGGSLRLSCAASGRSFSSSVMGWFRQTPGKEREFVAATRWTAASTHYADSVKGRFTISRDHAENAVFLQMNSLKPEDTAVYYCAAGNYLDTAQYRYNYWGQGTQVTVSS
modifications: left off: small tags and cut ends

How the values were obtained:
[1] = system: A549 cells that endogenously express hIGF2R; experiment: Internalization by fluorescence microscopy after acid wash, A549 cells; format: cell-based, human; conditions: 25 nM Alexa fluor 647 conjugate
Procedure: (§1) First, Alexa fluor 647-conjugates of the VHH 13F11 and the biparatopic VHH construct […] were added to A549 cells that endogenously express hIGF2R (FIG. 16A), NIH 3T3 2.2 cells that were transiently transfected with hIGF2R (FIG. 16B), or mock transfected NIH 3T3 2.2 cells (as a negative control). For this, the cells were incubated with 25 nM of the VHH or the VHH construct. Before fluorescent microscopy readout, to ensure that only signal of internalized VHH or mouse anti-IGF2R was present, an acid wash (0.2M glycine-HCl, 150 mM NaCl, pH 2.3) was used to remove VHH or mouse anti-IGF2R bound to the target receptors on the cell surface. The efficiency of the acid wash procedure was verified by incubating the hIGF2R transfected NIH 3T3 2.2 cells with 13F11-13E8-A647 on ice and subsequently treating these cells with an acid wash while remaining on ice to prevent internalization (FIG. 16D). […] Summarizing, biparatopic 13F11-13E8 clearly internalizes in cells expressing hIGF2R on the cell surface.

[2] = system: mock transfected NIH 3T3 2.2 cells; experiment: Internalization by fluorescence microscopy after acid wash, mock transfected cells; format: cell-based; conditions: 25 nM Alexa fluor 647 conjugate, negative control cells
Procedure: as §1

[3] = system: SCC-hIGF2R cells; experiment: Kinetic internalization assay on SCC-hIGF2R cells; format: cell-based, human
Procedure: (§2) The rate of internalization (endocytic rate constant, ke) of biparatopic constructs 13F11-13E8 and 13E8-13F11 was determined with a kinetic internalization assay on SCC-hIGF2R and SCC-rIGF2R cells. Briefly, 10 nM of IRD800CW conjugated 13F11-13E8 or 13E8-13F11 (conjugation method as described in example 10.2) was added to hIGF2R expressing SCC cells or rIGF2R expressing SCC cells and incubated at 37° C. for different time points up to 12 minutes. Internalization was then purposely halted by putting the cells on ice. Subsequently, cells were washed with cold PBS and the non-internalized VHH construct (bound fraction) was separated from the internalized construct (internalized fraction) using an acid-wash, as described above, after which the fluorescence of both fractions were measured. Both constructs internalize with similar endocytic rate constants in SCC-hIGF2R cells (ke around 1.5 min-1) and in SCC-rIGF2R cells (ke around 0.7 min-1) (FIGS. 17A and B, respectively).
(§3) Internalization of 13F11-13E8 and the corresponding monomeric VHHs 13F11 and 13E8 was assessed in a similar assay (FIG. 17A-C).

[4] = system: SCC-rIGF2R cells; experiment: Kinetic internalization assay on SCC-rIGF2R cells; format: cell-based, rat
Procedure: as §2, §3

[5] = system: LX2 cells (an activated hepatic stellate cell line); experiment: Live imaging of internalization with pHrodo-red conjugates in LX2 cells; format: cell-based, human; conditions: 50 nM pHrodo-red conjugate
Source text: Internalization of monovalent 13F11 and biparatopics 13F11-13E8 and 13E8-13F11 was finally assessed in LX2 cells (an activated hepatic stellate cell line). For live imaging of internalization, the pH dependent Phrodo probe was used (ThermoFisher Scientific). This pH dependent probe becomes more fluorescent at acidic pH. Endosomes and lysosomes have a pH maintained at 6.5 and 4.5, respectively, compared to cytoplasmic pH of 7.0, and thus internalization of a VHH-pHrodo construct can be visualized when it internalizes via the endosomal pathway. LX-2 cells were incubated at 37° C. for 2 hours with 50 nM of pHrodo-red conjugated 13F11, 13F11-13E8 and 13E8-13F11 (conjugation method as described in example 10.2). Images were taken at 5 min. intervals using a wide-field PEXScope microscope (Nikon) with a mCherry filter and 40× oil objective.

[6] = In vivo pharmacokinetics in rats, serum ELISA on hIGF2R-ECD; parameters: species or system Sprague-Dawley rats; conditions: rats, i.v., approximately 3 mg/kg; ELISA LOD approximately 20 nM
Procedure: (§4) The in vivo pharmacokinetic properties of 13F11-13E8-ABD (F11E8-ABD; with ABD) and 13F11-13E8 (F11E8; without ABD) were compared in healthy Sprague-Dawley rats. In brief, rats were dosed intravenously with approximately 3 mg/kg body weight and blood samples were taken at different time points and the concentration of the VHH constructs were determined using an ELISA on immobilized hIGF2R-ECD. […] To further confirm the functionality of the ABD, biodistribution of F11E8-ABD and F11E8 were assessed by means of Positron Emission Tomography (PET). In brief, the constructs were radio-labelled with the positron emitter ^89Zr-desferral according to Verel et al (J Nucl Med. 2003; 44:1271-1281), and administered intravenously to rats after which biodistribution was assessed on subsequent time points by whole-body PET.

[7] = system: NIH 3T3 2.2 cells that were transiently transfected with hIGF2R; experiment: Internalization by fluorescence microscopy after acid wash, hIGF2R-transfected NIH 3T3 2.2 cells; format: cell-based, human; conditions: 25 nM Alexa fluor 647 conjugate
Procedure: as §1

[8] = system: SCC cells expressing mIGF2R; experiment: Kinetic internalization assay on SCC cells expressing mIGF2R; format: cell-based, murine; conditions: IRDye800 conjugates, FIG. 17C left panel
Procedure: as §2, §3

[9] = Biodistribution by whole-body PET of 89Zr-labelled constructs; format: in vivo; conditions: 89Zr-desferral labelled, i.v., rats
Procedure: as §4

[10] = system: LX-2 cells; experiment: Kinetic internalization assay on LX-2 cells; format: cell-based, human; conditions: FIG. 19 right panel
Procedure: as §2
To determine the rate of internalization of the VHH construct SP02P-SP26P, kinetic internalization assays on hPDGFRB expressing SCC cells and LX-2 cells were performed using a similar method as described for the IGF2R constructs in example 11.1.

[11] = system: SCC-hPDGFRB cells; experiment: Kinetic internalization assay on SCC-hPDGFRB cells; format: cell-based, human
Procedure: as §2
To determine the rate of internalization of the VHH construct SP02P-SP26P, kinetic internalization assays on hPDGFRB expressing SCC cells and LX-2 cells were performed using a similar method as described for the IGF2R constructs in example 11.1. […]

[12] = target: T1, rPDGFRB-ECD (Rattus norvegicus, UniProt Q05030); experiment: Binding assay on rPDGFRB-ECD; conditions: IRDye800-conjugated, FIG. 15D
T1 sequence (Q05030 32-531 limits assumed): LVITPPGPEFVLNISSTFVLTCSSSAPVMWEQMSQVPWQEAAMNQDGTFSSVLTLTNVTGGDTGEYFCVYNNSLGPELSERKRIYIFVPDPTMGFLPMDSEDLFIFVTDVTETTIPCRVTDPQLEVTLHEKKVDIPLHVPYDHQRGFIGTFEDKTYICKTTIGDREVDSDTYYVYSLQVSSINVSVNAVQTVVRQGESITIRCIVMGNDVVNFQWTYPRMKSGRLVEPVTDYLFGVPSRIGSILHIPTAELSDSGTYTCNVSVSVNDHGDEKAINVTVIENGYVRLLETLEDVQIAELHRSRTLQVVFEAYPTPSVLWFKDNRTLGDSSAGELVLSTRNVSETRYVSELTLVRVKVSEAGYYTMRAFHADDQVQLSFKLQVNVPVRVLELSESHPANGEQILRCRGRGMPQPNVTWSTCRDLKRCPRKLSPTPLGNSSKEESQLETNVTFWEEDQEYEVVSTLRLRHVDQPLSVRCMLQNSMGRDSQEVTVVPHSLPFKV
Procedure: (§5) The 18 unique hPDGFRB binders from libraries 1 and 2, and the 11 unique rPDGFRB binders from libraries 3 and 4 (Example 2.2, FIGS. 5 and 6) were produced and purified as described in examples 3 and 4. Then, the apparent affinities were determined with binding assays on hPDGFRB-ECD and rPDGFRB-ECD, respectively, the setup described in example 5.1. Results are summarized in FIGS. 5 and 6 for the hPDGFRB and rPDGFRB VHHs, respectively.
As Shown in FIG. 15C), the binding affinity of this construct for both hPDGFRB and rPDGFRB are below 5 nM. […] These observations make SP02P (or similar VHH) and SP26P (or similar VHH) particularly promising for use in the present invention.

[13] = target: hPDGFRB-ECD (Homo sapiens, UniProt P09619); experiment: Binding assay on hPDGFRB-ECD; conditions: IRDye800-conjugated, FIG. 15D
Procedure: The 15 unique hIGF2R-binding VHH (Example 2.1, FIG. 2) were produced and purified as described in examples 3 and 4. The apparent affinities were determined through binding assay on immobilized hIGF2R-ECD. Briefly, three-fold serial dilution series, starting from 1 μM, of each VHH were plated onto hIGF2R-ECD coated plates. VHH were allowed to bind for two hours after which plates were washed. Then, bound VHH was detected using a VHH-specific IgG antibody, followed by an IRD800CW-conjugated IgG-specific antibody. Plates were read out by fluorimetry.
as §5
Based on their high affinity and binding to non-overlapping hPDGRB epitopes, various biparatopic constructs were prepared based on VHHs SP02P, SP12P SP14P, SP26P and SP28P. The constructs were produced as described in example 7.1. and subjected to binding assay.
As Shown in FIG. 15C), the binding affinity of this construct for both hPDGFRB and rPDGFRB are below 5 nM. […]

[14] = system: SCC-rPGDFRB cells; experiment: Kinetic internalization assay on SCC-rPGDFRB cells; format: cell-based; conditions: IRDye800 conjugates, cells expressing rat PDGFRB
Procedure: as §2
To confirm improved internalization of biparatopic VHH constructs compared to the monomeric individual VHH components, kinetic internalization assays were performed using SCC-rPGDFRB and on SCC-hPDGFRB cells, using a similar method as described for the IGF2R constructs in example 11.1. […]

[15] = target: T2, murine PDGFRB ectodomain (mPDGFRB-ECD) (Mus musculus, UniProt P05622); experiment: Binding assay on murine PDGFRB ectodomain; conditions: IRDye800-conjugated, FIG. 15D
T2 construct: varied across murine PDGFRB ectodomain (mPDGFRB-ECD), rPDGFRB-ECD and hPDGFRB-ECD
T2 sequence (P05622 32-531 limits assumed): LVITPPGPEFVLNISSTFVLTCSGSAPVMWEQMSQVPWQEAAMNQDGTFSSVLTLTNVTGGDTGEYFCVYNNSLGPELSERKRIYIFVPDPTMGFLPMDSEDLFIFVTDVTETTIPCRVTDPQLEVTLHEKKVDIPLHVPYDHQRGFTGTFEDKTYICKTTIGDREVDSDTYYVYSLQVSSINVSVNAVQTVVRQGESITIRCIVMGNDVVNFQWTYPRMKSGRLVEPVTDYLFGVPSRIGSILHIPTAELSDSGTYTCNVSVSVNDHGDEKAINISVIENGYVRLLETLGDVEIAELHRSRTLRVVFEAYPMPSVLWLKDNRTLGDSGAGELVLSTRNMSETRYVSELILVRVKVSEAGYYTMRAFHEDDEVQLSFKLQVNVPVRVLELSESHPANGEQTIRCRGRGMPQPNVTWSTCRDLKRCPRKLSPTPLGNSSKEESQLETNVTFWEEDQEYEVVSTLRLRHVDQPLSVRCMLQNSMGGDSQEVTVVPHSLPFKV

[16] = 10 nM IRD800CW conjugate, 37° C., up to 12 minutes

Sequence of hPDGFRB-ECD (P09619 33-532 limits assumed): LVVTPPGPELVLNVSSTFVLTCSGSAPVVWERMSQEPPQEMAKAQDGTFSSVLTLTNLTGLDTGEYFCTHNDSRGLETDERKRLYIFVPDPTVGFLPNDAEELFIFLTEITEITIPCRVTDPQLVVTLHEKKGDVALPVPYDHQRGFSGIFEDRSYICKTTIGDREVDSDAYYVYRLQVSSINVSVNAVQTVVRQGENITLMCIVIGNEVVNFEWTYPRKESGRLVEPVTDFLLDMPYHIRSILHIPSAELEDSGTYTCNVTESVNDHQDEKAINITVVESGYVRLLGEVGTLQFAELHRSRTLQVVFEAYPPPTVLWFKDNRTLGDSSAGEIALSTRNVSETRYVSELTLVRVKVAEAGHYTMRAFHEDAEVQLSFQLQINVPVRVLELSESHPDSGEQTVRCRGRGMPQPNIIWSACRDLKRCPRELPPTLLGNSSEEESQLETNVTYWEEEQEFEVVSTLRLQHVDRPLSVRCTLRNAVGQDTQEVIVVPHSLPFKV

Molecule | internalization [1] | internalization [2] | endocytic rate constant, ke [3, 16] | internalization compared to the monomeric VHHs ([3]; IRDye800 conjugates, FIG. 17C right panel) | endocytic rate constant, ke [4, 16] | internalization compared to the monomeric VHHs ([4]; IRDye800 conjugates, FIG. 17C middle panel) | intracellular localisation of internalized construct [5] | increase in intracellular fluorescence (internalization) ([5]; 37° C., compared to monovalent 13F11 / between biparatopics) | clearance from circulation / detectability in serum [6] | internalization [7] | internalization compared to the monomeric VHHs [8] | biodistribution (PET) [9] | internalization [10] | internalization ([11]; FIG. 19 left panel) | internalization rate compared to monomeric VHH SP02 and SP26 ([11]; IRDye800 conjugates, cells expressing human PDGFRB) | affinity for rPDGFRB-ECD [12] | affinity for hPDGFRB-ECD [13] | internalization rate compared to monomeric VHH SP02 and SP26 [14] | affinity for mPDGFRB-ECD [15]
B1 | clearly internalized | no internalization was observed | around 1.5 min-1 | superior internalization | around 0.7 min-1 | superior internalization | accumulate into perinuclear compartments (endosomes/lysosomes) | higher rate of internalization | could not be detected anymore within two hours after injection | superior internalization | superior internalization | swiftly accumulated in the kidneys |  |  |  |  |  |  | 
B2 |  |  |  |  |  |  |  |  |  |  |  |  | observed | observed | 5-10 fold | high affinity | high affinity | 5-10 fold | high affinity
